Measurements as given in patent US20110117082A1 (SHANGHAI FUDAN ZHANGJIANG BIO PHARMACEUTICAL, published 2011).

T1: LT28-171 (lymphotoxin) (UniProt P01374)
T1 sequence (looked up): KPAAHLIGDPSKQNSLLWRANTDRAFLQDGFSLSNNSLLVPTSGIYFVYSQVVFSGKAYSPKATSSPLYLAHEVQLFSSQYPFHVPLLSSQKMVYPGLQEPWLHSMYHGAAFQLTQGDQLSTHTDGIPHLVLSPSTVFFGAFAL

B1: LT28-171 (lymphotoxin) (ligand, UniProt P01374 62-205, looked up)
chain: T1 sequence (looked up)
notes: range 28-171; these probably count on the mature protein (171 residues), not on the precursor
B2: wild-type soluble human TNFRp75:Fc fusion protein (ENBREL from AMGEN) (Fc fusion, not shown: a dimerising Fc or GST)
chain: LPAQVAFTPYAPEPGSTCRLREYYDQTAQMCCSKCSPGQHAKVFCTKTSDTVCDSCEDSTYTQLWNWVPECLSCGSRCSSDQVETQACTREQNRICTCRPGWYCALSKQEGCRLCAPLRKCRPGFGVARPGTETSDVVCKPCAPGTFSNTTSSTDICRPHQICNVVAIPGNASMDAVCTSTSPTRSMAPGAVHLPQPVSTRSQHTQPTPEPSTAPSTSFLLPMGPSPPAEGSTGD

How the values were obtained:
[1] = biological target: T1, LT28-171 (lymphotoxin); test: cell-based or functional assay
[2] = biological target: tumor necrosis factor α (TNFα) (UniProt P01375); test: cell-based or functional assay
[3] = biological target: B2; test: SPR, Biacore3000, receptor:Fc amine-coupled to CM5 chip, ligand in flow, 1:1 Langmuir fit
Protocol: The interaction of the receptor and the ligand was measured in kinetics assay using Wizard of Biacore3000. All the ligands were applied at a flow rate of 40 μL/min for 1 min, dissociated for 2 min, and then 50 mM NaOH and HBS-P buffer were applied at a flow rate of 100 μL/min for 15s and 60s to regenerate the ligands (50 mM NaOH and HBS-P buffer were applied at a flow rate of 100 μL/min for 10s and 30s to regenerate in the primary screening). The experimental data were fit to the 1:1 Langmuir association model in the analysis software of Biacore3000 to provide the specific kinetic constant.

[4] = biological target: B1; test: cell-based or functional assay

tumor necrosis factor α (TNFα), sequence (P01375 77-233 limits assumed): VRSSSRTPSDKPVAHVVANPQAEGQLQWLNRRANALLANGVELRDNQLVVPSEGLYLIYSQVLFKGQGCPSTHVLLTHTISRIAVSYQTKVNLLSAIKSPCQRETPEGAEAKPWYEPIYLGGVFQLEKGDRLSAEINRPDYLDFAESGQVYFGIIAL

| Molecule | EC50(ng/ml) of the neutralizing activity of the mutants against LT [1] [ng/mL] | Enhancement of the neutralizing activity against LT [1] [%] | EC50(ng/ml) of the neutralizing activity of the mutants (Example 9: against the cytotoxicity of TNFα) [2] [ng/mL] | Enhancement of the neutralizing activity against TNFα [2] [%] | neutralizing activity to TNFα relative to wild-type soluble TNFRp75: Fc (ENBREL from AMGEN) (times that of wild-type TNFRp75: Fc) [2] | Kd [3] [nM] | koff [3] [s⁻¹] | kon [3] [M⁻¹ s⁻¹] | EC50 of the neutralizing activity on LT [4] [ng/mL] |
| --- | --- | --- | --- | --- | --- | --- | --- | --- | --- |
| TNFRp75 (E92H): Fc fusion protein | 3.74 | 1180 | 9.03 | 129 | – | – | – | – | – |
| TNFRp75 (E92S, W89Y): Fc fusion protein | 6.28 | 368 | 12.2 | 133 | – | – | – | – | – |
| TNFRp75 (E92N, W89F): Fc fusion protein | 7.56 | 308 | 1020 | 128 | – | – | – | – | – |
| TNFRp75 (E92A): Fc fusion protein | 7.93 | 291 | 6.34 | 130 | – | – | – | – | – |
| TNFRp75 (E92N): Fc fusion protein | 7.94 | 277 | 5.68 | 131 | 1.33 | – | – | – | – |
| B1 | – | – | – | – | – | 0.134 | 6.99e-07 | 5230 | – |
| B2 | – | – | – | – | – | – | – | – | 22.3 |
